Data reported in article PMC9909341, “TLQP-21 is a low potency partial C3aR activator on human primary macrophages” (Frontiers in Immunology, 2023).
Like-named read-outs stand apart in the source and are kept apart here.

T1: human C3aR (Homo sapiens, UniProt Q16581)
T1 sequence (Q16581 1-482): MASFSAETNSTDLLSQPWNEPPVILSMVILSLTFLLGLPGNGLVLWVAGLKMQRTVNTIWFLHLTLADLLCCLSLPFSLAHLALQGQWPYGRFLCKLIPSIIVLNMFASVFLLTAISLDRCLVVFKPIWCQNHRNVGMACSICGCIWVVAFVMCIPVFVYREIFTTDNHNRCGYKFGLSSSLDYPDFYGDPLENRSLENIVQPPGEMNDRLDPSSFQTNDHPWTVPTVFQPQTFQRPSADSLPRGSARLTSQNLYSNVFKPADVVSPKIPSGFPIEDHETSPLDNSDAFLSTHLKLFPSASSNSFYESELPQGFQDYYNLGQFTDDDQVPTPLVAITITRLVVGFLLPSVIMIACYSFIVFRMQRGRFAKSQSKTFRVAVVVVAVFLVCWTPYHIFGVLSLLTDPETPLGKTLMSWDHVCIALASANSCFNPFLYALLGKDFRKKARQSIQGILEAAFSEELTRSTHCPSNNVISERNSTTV

T2: Human complement C3a receptor, endogenous on human monocyte-derived macrophages (human (endogenous in HMDMs)) (UniProt Q16581)
T2 sequence: T1 sequence (Q16581 1-482)

T3: Human complement C3a receptor, stably expressed on CHO cells (human) (UniProt Q16581)
T3 sequence: T1 sequence (Q16581 1-482)

T4: Murine complement C3a receptor, endogenous on mouse bone marrow-derived macrophages (mouse (endogenous in BMDMs)) (UniProt O09047)
T4 sequence: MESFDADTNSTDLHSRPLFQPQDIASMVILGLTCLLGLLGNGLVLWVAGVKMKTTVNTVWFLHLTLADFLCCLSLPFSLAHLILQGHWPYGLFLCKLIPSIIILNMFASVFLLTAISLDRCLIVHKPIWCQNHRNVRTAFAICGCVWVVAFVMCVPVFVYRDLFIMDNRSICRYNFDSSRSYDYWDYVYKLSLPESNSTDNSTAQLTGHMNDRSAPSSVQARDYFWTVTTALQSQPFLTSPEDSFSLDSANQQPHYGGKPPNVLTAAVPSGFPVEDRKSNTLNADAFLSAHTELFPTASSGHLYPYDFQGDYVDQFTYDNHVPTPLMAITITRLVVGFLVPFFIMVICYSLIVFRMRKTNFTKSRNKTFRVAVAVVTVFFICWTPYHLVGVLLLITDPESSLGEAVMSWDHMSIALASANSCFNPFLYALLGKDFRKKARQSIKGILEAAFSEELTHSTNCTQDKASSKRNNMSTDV


Columns and labels:
human C3aR = target: T1, human C3aR; assay: phospho-ERK1/2 assay in CHO-C3aR cells; assay type: cell-based; details: efficacy relative to hC3a; fold baseline normalised; n = 3-4
Experimental: Cell lines for this study were cultured as previously described ([20]). Non-transfected CHO-K1 cells or CHO cells stably expressing the human C3aR (CHO-C3aR; Product # ES-730-C, PerkinElmer, Melbourne, Australia) were maintained in Ham’s F12 medium containing 10% foetal bovine serum (FBS), 100 IU/ml penicillin and 100 μg/ml streptomycin, with additional 400 μg/ml G418 (In vivoGen, San Diego, USA) added for CHO-C3aR cell culture. HEK293 cells were maintained in DMEM medium containing 10% FBS, 100 IU/ml penicillin and 100 μg/ml streptomycin. All cell lines were maintained in T175 flasks (37°C, 5% CO2) and subcultured at 80-90% confluency using 0.05% trypsin-EDTA in DPBS.
(§1) Ligand-induced ERK1/2 phosphorylation was assessed using the AlphaLISA Surefire Ultra p-ERK1/2 (Thr202/Tyr204) kit (PerkinElmer, Melbourne, Australia) following the manufacturer’s protocol as previously described ([18], [20], [22]). Briefly, CHO-K1, CHO-C3aR, CHO-C5aR1, HMDMs (50,000/well) or BMDMs (90,000/well) were seeded in tissue culture-treated 96-well plates (Corning, Corning, USA) for 24 h and serum-starved overnight. All ligand dilutions were prepared in serum-free medium (SFM) containing 0.1% BSA. For inhibition assays, cells were pre-treated with the following ligands (5 µM SB290157, or respective concentrations of hC3a, mC3a, hC5a, hTLQP-21, and mTLQP-21) or the solvent-only control for 30 min before agonist (hC3a, hTLQP-21 and mTLQP-21) addition. The concentration and identity of the ligands are described in detail in the figure legends. For stimulation, cells were treated with ligands at the indicated concentrations for 10 min at RT and then immediately lysed using AlphaLISA lysis buffer on a microplate shaker (450 rpm, 10 min). For the detection of phospho-ERK1/2 content, cell lysate (5 μL/well) was transferred to a 384-well ProxiPlate (PerkinElmer, Melbourne, Australia) and added to the donor and acceptor reaction mix (2.5 μL/well, respectively), followed by a 2-h incubation at RT in the dark. On a Tecan Spark 20M (Tecan, Männedorf, Switzerland), the plate was measured using standard AlphaLISA settings.
(§2) All experiments were conducted in triplicates and repeated on three separate occasions unless otherwise specified. Data was analysed using GraphPad software (Prism 9.1). Data from each individual repeat was normalised accordingly (as specified in the figure legends) before being combined and expressed as mean ± standard error of the mean (S.E.M.) unless otherwise described. For all dose-response studies, logarithmic concentration-response curves were plotted using combined data and analysed to determine the respective potency values. Statistical analysis was performed using two-way ANOVA with Dunnett’s post hoc analysis. Donor-matched comparisons were made for HMDM experiments. Differences were deemed significant when p < 0.05.
Figure 1 hTLQP-2 and mTLQP-21 activate ERK signalling in CHO-K1 and CHO-C3aR cells. hTLQP-21, mTLQP-21 and plasma-derived human C3a were tested in (A) non-transfected CHO-K1 or (B) CHO cells stably expressing human C3aR. CHO cells were serum-starved overnight and then stimulated with various ligands for 10 min before being lysed. The phospho-ERK1/2 content in the lysate was measured and expressed as fold-baseline before being combined. The maximum relative pERK1/2 activity induced by each ligand is shown in (C). Data represent mean ± S.E.M. of triplicate measurements from 3-4 independent experiments (n = 3-4). Two-way ANOVA with Dunnett’s post hoc analysis. *P < 0.05, ***P < 0.001, ****P < 0.0001. Ligand treated versus medium treated cells for each cell line.

[1] = system: HMDM (endogenous human C3aR); assay type: cell-based; details: 10 min stimulation at RT, n = 4 donors
Description: HMDMs were generated and cultured as previously described ([20]), with experiments approved by The University of Queensland Human Research Ethics Committee. Briefly, human buffy coat blood from anonymous healthy donors was obtained through the Australian Red Cross Blood Service (Brisbane, Australia). Human CD14+ monocytes were isolated from blood using Lymphoprep density centrifugation (STEMCELL, Melbourne, Australia) followed by CD14+ MACS magnetic bead separation (Miltenyi Biotec, Sydney, Australia). The isolated monocytes were differentiated for 7 days in Iscove’s Modified Dulbecco’s Medium supplemented with 10% FBS, 100 IU/ml penicillin, 100 μg/ml streptomycin and 15 ng/ml recombinant human macrophage colony stimulating factor (BioLegend, San Diego, USA) on 10 mm square dishes (Bio-strategy, Brisbane, Australia). Non-adherent cells were removed by washing with DPBS, and the adherent differentiated HMDMs were harvested by gentle scraping.
as §1, §2
Figure 3 Agonistic and antagonistic activities of hTLQP-21 and mTLQP-21 in human monocyte-derived macrophages. Serum-starved HMDMs (50,000/well) were (A) stimulated with medium or respective ligands at the indicated concentrations for 10 min and then lysed, or (B) pre-treated with 5 µM SB290157 for 30 min prior to stimulation. (C) HMDMs were pre-treated with 10 μM hTLQP-21 or mTLQP-21 for 30 min before being stimulated with respective concentrations of human C3a. (D) HMDMs were pre-treated with 10 nM hC3a, 10 μM hTLQP-21 or mTLQP-21 for 30 min before being stimulated with the same concentrations of the above ligands for 10 min and then lysed. (E) HMDMs were pre-treated with 10 μM hTLQP-21 or mTLQP-21 for 30 min before being stimulated with respective concentrations of human C5a for 10 min and then lysed. […]

BMDM (murine C3aR) = assay type: cell-based, mouse; details: wild-type C57BL/6J BMDMs, 90,000/well; 10 min stimulation at RT; AlphaLISA p-ERK1/2; n = 3 mice; C3a is recombinant mouse C3a; read-out: EC50 (pERK1/2), BMDM
Experimental: Mouse bone marrow-derived macrophages (BMDMs) were obtained and cultured as previously described ([20], [21]). All experiments using mice were approved by the University of Queensland animal ethics committee. Wild-type and C3aR^-/- mice on a C57BL/6J genetic background (n = 3) were sacrificed by cervical dislocation. The tibia was removed and sterilised. Upon removal of both epiphyses, bone marrow cells were harvested by flushing the central cavity with complete RPMI-1640 medium using a 10 ml syringe attached to a 25-gauge needle. Cells were then cultured in complete RPMI-1640 medium (containing 10 % FBS, 100 IU/ml penicillin, 100 μg/ml streptomycin) supplemented with 100 ng/ml recombinant human macrophage colony stimulating factor on 10 mm square dishes. Mature adherent macrophages for assays were harvested on day 6-7 by gentle scraping.
as §1, §2
Figure 4 TLQP-21 triggers ERK signalling through C3aR in murine bone marrow-derive macrophages. BMDMs (90,000/well) from wildtype mice (A) or with C3aR knockout mice (B), were serum-starved overnight and then stimulated with respective ligands at the indicated concentrations for 10 min. The phospho-ERK1/2 content in the cell lysate was measured and normalised to the medium only-treated levels before being combined. Data represent mean ± S.E.M. of triplicate measurements using cells from 3 mice (n = 3).

[2] = target: T2, Human complement C3a receptor, endogenous on human monocyte-derived macrophages (human (endogenous in HMDMs))
[3] = target: T3, Human complement C3a receptor, stably expressed on CHO cells (human)
[4] = target: Endogenous C3aR of CHO-K1 cells (Chinese hamster (endogenous in CHO-K1))
[5] = target: T3, Human complement C3a receptor, stably expressed on CHO cells (human); remark: listed apart in the source
[6] = target: T2, Human complement C3a receptor, endogenous on human monocyte-derived macrophages (human (endogenous in HMDMs)); remark: listed apart in the source
[7] = target: T4, Murine complement C3a receptor, endogenous on mouse bone marrow-derived macrophages (mouse (endogenous in BMDMs))
[8] = target: T2, Human complement C3a receptor, endogenous on human monocyte-derived macrophages (human (endogenous in HMDMs)); remark: listed apart in the source

Recombinant mouse C3a, sequence (P01027 671-748): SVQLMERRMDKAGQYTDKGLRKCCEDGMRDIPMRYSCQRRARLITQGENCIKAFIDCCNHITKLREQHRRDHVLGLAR

Molecule	EC50 (nM) of ERK1/2 phosphorylation in HMDMs [2] [nM]	EC50 (nM) of ERK1/2 phosphorylation in CHO-C3aR cells [3] [nM]	EC50 (nM) of ERK1/2 phosphorylation in BMDMs [7] [nM]	EC50 (BMDM (murine C3aR)) [nM]	further results
CC(C)C[C@H](NC(=O)[C@H](C)NC(=O)[C@H](CO)NC(=O)[C@@H]1CCCN1C(=O)[C@@H]1CCCN1C(=O)[C@H](CCC(N)=O)NC(=O)[C@H](CC(C)C)NC(=O)[C@@H](N)[C@@H](C)O)C(=O)N[C@@H](CCCNC(=N)N)C(=O)N[C@@H](CCCNC(=N)N)C(=O)N[C@@H](CCCNC(=N)N)C(=O)N[C@@H](Cc1c[nH]cn1)C(=O)N[C@@H](Cc1ccc(O)cc1)C(=O)N[C@@H](Cc1c[nH]cn1)C(=O)N[C@@H](Cc1c[nH]cn1)C(=O)N[C@@H](C)C(=O)N[C@@H](CC(C)C)C(=O)N1CCC[C@H]1C(=O)N1CCC[C@H]1C(=O)N[C@@H](CO)C(=O)N[C@@H](CCCNC(=N)N)C(=O)O [hTLQP-21]	–	–	–	401	% C3a activity ± SE, CHO-C3aR (human C3aR): 87.0 ± 3.5%; EC50 ([1]; estimated, read-out: estimated EC50 (pERK1/2), HMDM): 14800 nM
CC(C)C[C@H](NC(=O)[C@@H](N)[C@@H](C)O)C(=O)N[C@@H](CCC(N)=O)C(=O)N1CCC[C@H]1C(=O)N1CCC[C@H]1C(=O)N[C@@H](C)C(=O)N[C@@H](CO)C(=O)N[C@@H](CO)C(=O)N[C@@H](CCCNC(=N)N)C(=O)N[C@@H](CCCNC(=N)N)C(=O)N[C@@H](CCCNC(=N)N)C(=O)N[C@@H](Cc1c[nH]cn1)C(=O)N[C@@H](Cc1ccccc1)C(=O)N[C@@H](Cc1c[nH]cn1)C(=O)N[C@@H](Cc1c[nH]cn1)C(=O)N[C@@H](C)C(=O)N[C@@H](CC(C)C)C(=O)N1CCC[C@H]1C(=O)N1CCC[C@H]1C(=O)N[C@@H](C)C(=O)N[C@@H](CCCNC(=N)N)C(=O)O [mTLQP-21]	–	–	–	96.5	% C3a activity ± SE, CHO-C3aR (human C3aR): 91.8 ± 2.7%; EC50 ([1]; primary human macrophages, 50,000/well, AlphaLISA p-ERK1/2, read-out: EC50 (pERK1/2), HMDM): 2850 nM
Human C3a (from UniProt P01024 672-748) (ligand)	0.11	0.15	–	–	relative efficacy of C3a-induced ERK signalling in CHO-K1 cells, fold baseline (fold baseline) [4]: 2.7; relative efficacy of C3a-induced ERK signalling in CHO-C3aR cells, fold baseline (fold baseline) [5]: 7.3; C3a-induced ERK signalling in HMDMs pre-treated with the C3aR antagonist SB290157, % of the untreated level (% of the untreated level) [6]: < 20
mC3a: Recombinant mouse C3a, purchased from R&D Systems	–	–	–	8.4	–

The next lines start with results.

EC50 (nM) of ERK1/2 phosphorylation in HMDMs [2] [nM]	EC50 (nM) of ERK1/2 phosphorylation in CHO-C3aR cells [3] [nM]	EC50 (nM) of ERK1/2 phosphorylation in BMDMs [7] [nM]	Molecule	EC50 (BMDM (murine C3aR)) [nM]	further results
–	–	8.4	Recombinant mouse C3a (from UniProt P01027 671-748) (ligand)	–	–
14800	587	401	TLQPPSALRRRHYHHALPPSR [Human TLQP-21]	–	hTLQP-21 induced ERK activation in HMDMs pre-treated with the C3aR antagonist SB290157 (5 μM, 30 min), % of the control level (% of the control level) [8]: 29
2850	83.6	96.5	TLQPPASSRRRHFHHALPPAR [Mouse TLQP-21]	–	ERK signalling in HMDMs by 10 μM mTLQP-21 under the control conditions of Figure 3B, % of the C3a induced activity (% of the C3a induced activity) [8]: 40; mTLQP-21 induced ERK activation in HMDMs pre-treated with the C3aR antagonist SB290157 (5 μM, 30 min), % of the control level (% of the control level) [8]: 16
